Test results reported in paper PMC10397247.
One block for each binder: values may come before it.

What was measured:
[1] = biological target: T1, 4H338-bN; assay: two-hybrid library CCNG1;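 note: natural log of median RNA to DNA barcode read ratio; higher means stronger binding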
T1 chain: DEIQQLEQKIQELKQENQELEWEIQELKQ

[2] = biological target: T2, 4H754-bN; assay: two-hybrid library CCNG1;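 note: natural log of median RNA to DNA barcode read ratio; higher means stronger binding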
T2 chain: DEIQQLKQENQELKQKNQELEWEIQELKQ

[3] = biological target: T3, 4H953-bN; assay: two-hybrid library CCNG1;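 note: natural log of median RNA to DNA barcode read ratio; higher means stronger binding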
T3 chain: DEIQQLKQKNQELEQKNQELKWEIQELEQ

[4] = biological target: T4, 4H967-bN; assay: two-hybrid library CCNG1;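 note: natural log of median RNA to DNA barcode read ratio; higher means stronger binding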
T4 chain: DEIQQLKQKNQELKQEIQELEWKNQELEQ

[5] = biological target: T5, 4H918-bN; assay: two-hybrid library CCNG1;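 note: natural log of median RNA to DNA barcode read ratio; higher means stronger binding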
T5 chain: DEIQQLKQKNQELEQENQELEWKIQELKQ

[6] = biological target: T6, 4H797-bN; assay: two-hybrid library CCNG1;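 note: natural log of median RNA to DNA barcode read ratio; higher means stronger binding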
T6 chain: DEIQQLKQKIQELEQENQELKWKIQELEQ

[7] = biological target: T7, 4H883-bN; assay: two-hybrid library CCNG1
T7 chain: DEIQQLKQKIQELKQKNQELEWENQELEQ

[8] = biological target: T8, 4H568-bN; assay: two-hybrid library CCNG1
T8 chain: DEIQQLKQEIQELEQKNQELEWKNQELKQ

[9] = biological target: T9, 4H3855-bN; assay: two-hybrid library CCNG1
T9 chain: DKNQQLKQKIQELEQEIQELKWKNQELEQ

[10] = biological target: T10, 4H454-bN; assay: two-hybrid library CCNG1
T10 chain: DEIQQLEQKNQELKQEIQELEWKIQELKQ

[11] = biological target: T11, 4H908-bN; assay: two-hybrid library CCNG1
T11 chain: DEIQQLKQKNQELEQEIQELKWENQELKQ

[12] = biological target: T12, 4H717-bN; assay: two-hybrid library CCNG1
T12 chain: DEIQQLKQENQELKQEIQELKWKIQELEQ

[13] = biological target: T13, 4H72-bN; assay: two-hybrid library CCNG1
T13 chain: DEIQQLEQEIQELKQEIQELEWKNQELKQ

[14] = biological target: T14, 4H607-bN; assay: two-hybrid library CCNG1
T14 chain: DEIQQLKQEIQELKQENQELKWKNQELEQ

[15] = biological target: T15, 4H687-bN; assay: two-hybrid library CCNG1
T15 chain: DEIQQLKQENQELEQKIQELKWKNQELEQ

[16] = biological target: T16, 4H4001-bN; assay: two-hybrid library CCNG1
T16 chain: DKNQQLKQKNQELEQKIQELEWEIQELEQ

[17] = biological target: T17, 4H3427-bN; assay: two-hybrid library CCNG1
T17 chain: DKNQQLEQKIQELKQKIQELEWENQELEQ

[18] = biological target: T18, 4H3782-bN; assay: two-hybrid library CCNG1
T18 chain: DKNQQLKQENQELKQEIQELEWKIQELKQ

[19] = biological target: T19, 4H3974-bN; assay: two-hybrid library CCNG1
T19 chain: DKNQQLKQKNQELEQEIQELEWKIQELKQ

[20] = biological target: T20, 4H570-bN; assay: two-hybrid library CCNG1
T20 chain: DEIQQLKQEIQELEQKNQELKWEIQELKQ

[21] = biological target: T21, 4H906-bN; assay: two-hybrid library CCNG1
T21 chain: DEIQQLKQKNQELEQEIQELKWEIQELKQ

[22] = biological target: T22, 4H850-bN; assay: two-hybrid library CCNG1
T22 chain: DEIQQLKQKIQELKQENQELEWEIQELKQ

[23] = biological target: T23, 4H3858-bN; assay: two-hybrid library CCNG1
T23 chain: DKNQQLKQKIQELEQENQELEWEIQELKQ

[24] = biological target: T24, 4H3817-bN; assay: two-hybrid library CCNG1
T24 chain: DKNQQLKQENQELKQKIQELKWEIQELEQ

[25] = biological target: T25, 4H584-bN; assay: two-hybrid library CCNG1
T25 chain: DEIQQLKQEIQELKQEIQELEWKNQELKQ

[26] = biological target: T26, 4H619-bN; assay: two-hybrid library CCNG1
T26 chain: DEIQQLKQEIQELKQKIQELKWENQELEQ

[27] = biological target: T27, AP7-AA; assay: two-hybrid library CCmax
T27 chain: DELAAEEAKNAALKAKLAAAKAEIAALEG

[28] = biological target: T28, P4-AA; assay: two-hybrid library CCmax; details: mean of both orientations
T28 chain: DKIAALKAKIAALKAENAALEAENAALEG

[29] = biological target: T29, P8-AA; assay: two-hybrid library CCmax; details: mean of both orientations
T29 chain: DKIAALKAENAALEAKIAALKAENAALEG

[30] = biological target: T30, P7-AA; assay: two-hybrid library CCmax; details: mean of both orientations
T30 chain: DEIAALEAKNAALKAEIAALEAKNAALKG

[31] = biological target: T31, P11-AA; assay: two-hybrid library CCmax; details: mean of both orientations
T31 chain: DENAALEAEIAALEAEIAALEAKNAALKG

[32] = biological target: T32, P9-AA; assay: two-hybrid library CCmax; details: mean of both orientations
T32 chain: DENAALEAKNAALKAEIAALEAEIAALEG

[33] = biological target: T33, P2-AA; assay: two-hybrid library CCmax; details: mean of both orientations
T33 chain: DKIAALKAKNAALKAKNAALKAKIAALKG

[34] = biological target: T34, P3-AA; assay: two-hybrid library CCmax; details: mean of both orientations
T34 chain: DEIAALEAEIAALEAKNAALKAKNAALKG

[35] = biological target: T35, P1-AA; assay: two-hybrid library CCmax; details: mean of both orientations
T35 chain: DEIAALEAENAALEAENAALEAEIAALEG

[36] = biological target: GCN2_T; assay: two-hybrid library CCmax
[37] = biological target: T36, AP8-AA; assay: two-hybrid library CCmax; details: mean of both orientations
T36 chain: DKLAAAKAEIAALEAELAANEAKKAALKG

[38] = biological target: T37, P10-AA; assay: two-hybrid library CCmax; details: mean of both orientations
T37 chain: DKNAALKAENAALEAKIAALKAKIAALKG

[39] = biological target: T38, P12-AA; assay: two-hybrid library CCmax; details: mean of both orientations
T38 chain: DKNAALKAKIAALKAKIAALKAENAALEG

[40] = biological target: T39, 4H3094-AA; assay: two-hybrid library CCmax; details: mean of both orientations
T39 chain: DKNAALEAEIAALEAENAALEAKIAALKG

[41] = biological target: T40, 4H63-AA; assay: two-hybrid library CCmax; details: mean of both orientations
T40 chain: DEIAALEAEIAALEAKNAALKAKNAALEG

[42] = biological target: T41, 4H324-AA; assay: two-hybrid library CCmax; details: mean of both orientations
T41 chain: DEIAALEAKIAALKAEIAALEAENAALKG

[43] = biological target: T42, 4H2961-AA; assay: two-hybrid library CCmax; details: mean of both orientations
T42 chain: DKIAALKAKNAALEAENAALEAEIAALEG

[44] = biological target: T43, 4H3629-AA; assay: two-hybrid library CCmax; details: mean of both orientations
T43 chain: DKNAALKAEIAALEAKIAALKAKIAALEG

[45] = biological target: T44, 4H446-AA; assay: two-hybrid library CCmax; details: mean of both orientations
T44 chain: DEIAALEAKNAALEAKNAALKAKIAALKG

[46] = biological target: T45, 4H2903-AA; assay: two-hybrid library CCmax; details: mean of both orientations
T45 chain: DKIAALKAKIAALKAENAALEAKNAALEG

[47] = biological target: T46, 4H3915-AA; assay: two-hybrid library CCmax; details: mean of both orientations
T46 chain: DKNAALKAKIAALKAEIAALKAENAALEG

[48] = biological target: T47, 4H3449-AA; assay: two-hybrid library CCmax; details: mean of both orientations
T47 chain: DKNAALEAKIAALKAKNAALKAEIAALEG

[49] = biological target: T48, 4H3619-AA; assay: two-hybrid library CCmax; details: mean of both orientations
T48 chain: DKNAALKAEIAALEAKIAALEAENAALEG

[50] = biological target: T49, 4H3974-AA; assay: two-hybrid library CCmax; details: mean of both orientations
T49 chain: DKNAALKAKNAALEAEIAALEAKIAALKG

[51] = biological target: T50, 4H341-AA; assay: two-hybrid library CCmax; details: mean of both orientations
T50 chain: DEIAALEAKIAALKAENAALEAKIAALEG

[52] = biological target: T51, 4H3777-AA; assay: two-hybrid library CCmax; details: mean of both orientations
T51 chain: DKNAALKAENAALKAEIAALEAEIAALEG

[53] = biological target: T52, 4H380-AA; assay: two-hybrid library CCmax; details: mean of both orientations
T52 chain: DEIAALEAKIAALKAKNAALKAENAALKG

[54] = biological target: T53, 4H2774-AA; assay: two-hybrid library CCmax; details: mean of both orientations
T53 chain: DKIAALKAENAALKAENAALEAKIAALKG

[55] = biological target: T54, 4H2760-AA; assay: two-hybrid library CCmax
T54 chain: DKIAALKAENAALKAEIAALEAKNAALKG

[56] = biological target: T55, 4H2947-AA; assay: two-hybrid library CCmax; details: mean of both orientations
T55 chain: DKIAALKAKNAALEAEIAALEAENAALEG

[57] = biological target: T56, 4H3049-AA; assay: two-hybrid library CCmax; details: mean of both orientations
T56 chain: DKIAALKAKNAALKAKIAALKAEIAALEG

[58] = biological target: T57, 4H432-AA; assay: two-hybrid library CCmax; details: mean of both orientations
T57 chain: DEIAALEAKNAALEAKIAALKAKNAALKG

B1: 4H338-bN (peptide)
chain: DEIQQLEQKIQELKQENQELEWEIQELKQ
interaction score [1]: -1.01
interaction score [2]: -0.701
interaction score [3]: -1.33
interaction score [4]: 0.117
interaction score [5]: -0.295
interaction score [6]: -1.45
interaction score [7]: -1.26
interaction score [8]: 0.409
interaction score [9]: -0.12
interaction score [10]: -0.967
interaction score [11]: -0.434
interaction score [12]: -1.16
interaction score [13]: -0.606
interaction score [14]: -1.19
interaction score [15]: 0.0368
interaction score [16]: -0.385
interaction score [17]: -0.828
interaction score [18]: -0.966

B4: 4H2760-AA (peptide)
chain: DKIAALKAENAALKAEIAALEAKNAALKG
interaction score [40]: 2.17
interaction score [41]: -1.64
interaction score [42]: -1.09
interaction score [43]: -1.97
interaction score [44]: -1.14
interaction score [45]: -1.49
interaction score [46]: -1.32
interaction score [47]: -1.44
interaction score [48]: -1.27
interaction score [49]: -1.77
interaction score [50]: -1.69
interaction score [51]: -0.788
interaction score [52]: -0.779
interaction score [53]: -1.48
interaction score [54]: -1.29
interaction score [55]: 0.876
interaction score [56]: 0.202
interaction score [57]: 1.62
interaction score [58]: -0.454

Now from value to binder:

interaction score [19]: -0.487
interaction score [20]: -1.92
interaction score [21]: -1.83
interaction score [22]: -0.947
interaction score [23]: -0.555
interaction score [24]: -0.754
interaction score [25]: -2.15
interaction score [26]: -0.743
B2: 4H3817-bN (peptide)
chain: DKNQQLKQENQELKQKIQELKWEIQELEQ

interaction score [27]: -1.7
interaction score [28]: -1.42
interaction score [29]: -0.66
interaction score [30]: -2.09
interaction score [31]: -0.965
interaction score [32]: -2.24
interaction score [33]: -1.94
interaction score [34]: -1.88
interaction score [35]: -1.52
interaction score [36]: -2.13
interaction score [37]: -2.81
interaction score [38]: -0.0128
interaction score [39]: -1.62
B3: AP7-AA (peptide)
chain: DELAAEEAKNAALKAKLAAAKAEIAALEG
